pKd: −log10 of the molar value. One block for each substance: values may come before it.
What was measured:
[1] = biological target: carcinoembryonic antigen (CEA) (human) (UniProt P06731); assay: CEA column, after radiolabelling with 125I
[2] = biological target: carcinoembryonic antigen (CEA) (human) (UniProt P06731); assay: unbound fraction of 125I-MFE-23 His reapplied to the CEA column
[3] = biological target: carcinoembryonic antigen (CEA) (human) (UniProt P06731); assay: 125I-labelled scFv applied to a CEA coupled Sepharose 4B column, gamma counting
[4] = biological target: carcinoembryonic antigen (CEA) (human) (UniProt P06731); assay: known amount of antibody applied to the CEA affinity column after 6 months storage at 4 C
[5] = biological target: carcinoembryonic antigen (CEA) (human) (UniProt P06731); assay: IMAC purified MFE-23 His, 1 mg applied to the CEA affinity column after 6 months storage at 4 C
[6] = biological target: carcinoembryonic antigen (CEA) (human) (UniProt P06731); assay: IMAC purified MFE-23 His, 2 mg applied to the CEA affinity column after 6 months storage at 4 C
[7] = biological target: carcinoembryonic antigen (CEA) (human) (UniProt P06731); assay: IMAC purified MFE-23 His, 0.5 mg applied to the CEA affinity column after 6 months storage at 4 C
[8] = biological target: carcinoembryonic antigen (CEA) (human) (UniProt P06731); assay: MFE-23 His purified by CEA antigen affinity chromatography, 1 mg applied to the CEA affinity column
[9] = biological target: carcinoembryonic antigen (CEA) (human) (UniProt P06731); assay: CEA affinity column, after 6 months storage at 4 C, compared with MFE-23 His purified on the same column
[10] = biological target: carcinoembryonic antigen (CEA) (human) (UniProt P06731); assay: 125I-labelled scFv applied to a CEA coupled Sepharose 4B column, gamma counting; total recovered 1710 cpm
[11] = biological target: carcinoembryonic antigen (CEA) (human) (UniProt P06731); assay: fluorescence quench
[12] = biological target: carcinoembryonic antigen (CEA) (human) (UniProt P06731); assay: 99mTc-labelled MFE-cys applied to a 1 ml CEA/Sepharose column (1 mg CEA), bound material eluted with 3M ammoniumthiocyanate
[13] = biological target: carcinoembryonic antigen (CEA) (human) (UniProt P06731); assay: 125I-labelled scFv applied to a 1 ml CEA/Sepharose column (1 mg CEA)
[14] = biological target: carcinoembryonic antigen (CEA) (human) (UniProt P06731); assay: radiolabelled control scFv applied to a CEA coupled Sepharose 4B column, gamma counting
[15] = biological target: carcinoembryonic antigen (CEA) (human) (UniProt P06731); assay: fluorescence quench, purified soluble scFv
[16] = biological target: carcinoembryonic antigen (CEA) (human) (UniProt P06731); assay: summary of the affinity comparison with A5B7
[17] = biological target: carcinoembryonic antigen (CEA) (human) (UniProt P06731); assay: radiolabelled scFv applied to a CEA coupled Sepharose 4B column, gamma counting

antigen binding retained [1]: > 75%
percent of loaded counts in the bound fraction on reapplication [2]: 58%
percent of recovered counts in the bound fraction [3]: 75%
mean % bound specific activity [4]: 75%
Bound [5]: 0.68 mg
Specific activity (%) [5]: 75%
Bound [6]: 0.76 mg
Specific activity (%) [6]: 69%
Bound [7]: 0.4 mg
Specific activity (%) [7]: 81%
Bound [8]: 0.83 mg
Specific activity (%) [8]: 89%
antigen binding retained [9]: 84%
counts in the bound fraction [10]: 1280 cpm
Substance: MFE-23 His (MFE-23 scFv containing 6xHis at the C-terminus)

pKd [11]: 7.60
Substance: A5B7 monoclonal anti-CEA antibody

percent of counts recovered in the bound fraction [12]: 55%
Substance: MFE-cys (cysteine-tagged MFE-23 scFv)

percent of counts recovered [13]: 30.8%
Substance: A5-SC (scFv derived from monoclonal antibody A5B7)

counts bound to the column [14]: 1300 cpm
percent of recovered counts bound to the column [14]: 10%
Substance: control scFv B1.8

pKd [15]: 8.60
fold affinity against A5B7 [16]: 10 times
percent of counts recovered [13]: 38.7%
counts bound to the column [17]: 23000 cpm
percent of recovered counts bound to the column [17]: 56%
Substance: MFE-23 soluble scFv linked to a C-terminal myc tag

From patent US5876691A, “Antibody against carcionembryonic antigen (CEA)” (Cancer Research Campaign Technology Limited, priority 1993, dated 1999)
